# Assay results: US10377818B2, “Method of treating glioma” (The Board of Trustees of the Leland Stanford Junior …, priority 2015, dated 2019)
# System: NLGN3 protein in SU-pcGBM2 cells
# Test: Western blot of NLGN3 protein expression in glioma cells
# Format: cell-based, human
# Conditions: 50 nM NLGN3 for 12 hours, then 24 hours recovery in fresh media
# Description: A) Signaling through the PI3K pathway increases in response to NLGN3. Representative Western blot illustrating increased phosphorylation of AKT in response to various concentrations of NLGN3 ranging from 0-50 nM. p-AKT is shown in top panel; total AKT is shown in the bottom panel. B) Quantification of the increased fold change of pAKT/AKT ratio in response to NLGN3 at various doses (oneway ANOVA, F=17.99, P<001; data shown as mean±SEM; *P<0.05, **P<0.01, ***P<0.001 by Tukey's post-hoc tests to further examine pairwise comparisons). Fold change is normalized to blank media (aCSF). (C) Fos mRNA expression increases after 1 hour exposure to […] 50 nM NLGN3 (data shown as mean±SEM; **P<0.01 by unpaired two-tailed Student's t-test). D) NLGN3 mRNA expression increases after 12 hour exposure to 50 nM NLGN3 vs. vehicle in SU-[…] cells. Data shown as mean±SEM; *P<0.05 by unpaired two-tailed Student's t-test. […]
# Endogenous protein levels were determined using Western blot analysis. […]
# Briefly, in FIG. 5, panel A, cells were lysed after 1-hour exposure to 0 nM, 5 nM, 10 nM, or 50 nM recombinant NLGN3 (Origene Technologies, Rockville, Md.), using RIPA buffer and protease inhibitors. […] Protein concentration in the lysate was determined using a Bradford assay. […] Proteins were visualized using Clarity ECL Western Substrate (BioRad, Hercules, Calif.) and quantified using ImageJ.
molecule,measurement,value
"NLGN3: Recombinant full-length neuroligin-3 (Origene), tested as glioma mitogen (protein, listed as Mus musculus) MWLQPSLSLSPTPTVGRSLCLTLGFLSLVLRASTQAPAPTVNTHFGKLRGARVPLPSEILGPVDQYLGVPYAAPPIGEKRFLPPEPPPSWSGIRNATHFPPVCPQNIHTAVPEVMLPVWFTANLDIVATYIQEPNEDCLYLNVYVPTEDGSGAKKQGEDLADNDGDEDEDIRDSGAKPVMVYIHGGSYMEGTGNMIDGSVLASYGNVIVITLNYRVGVLGFLSTGDQAAKGNYGLLDQIQALRWVSENIAFFGGDPRRITVFGSGIGASCVSLLTLSHHSEGLFQRAIIQSGSALSSWAVNYQPVKYTSLLADKVGCNVLDTVDMVDCLRQKSAKELVEQDIQPARYHVAFGPVIDGDVIPDDPEILMEQGEFLNYDIMLGVNQGEGLKFVEGVVDPEDGVSGTDFDYSVSNFVDNLYGYPEGKDTLRETIKFMYTDWADRDNPETRRKTLVALFTDHQWVEPSVVTADLHARYGSPTYFYAFYHHCQSLMKPAWSDAAHGDEVPYVFGVPMVGPTDLFPCNFSKNDVMLSAVVMTYWTNFAKTGDPNKPVPQDTKFIHTKANRFEEVAWSKYNPRDQLYLHIGLKPRVRDHYRATKVAFWKHLVPHLYNLHDMFHYTSTTTKVPPPDTTHSSHITRRPNGKTWSTKRPAISPAYSNENAPGSWNGDQDAGPLLVENPRDYSTELSVTIAVGASLLFLNVLAFAALYYRKDKRRQEPLRQPSPQRGTGAPELGTAPEEELAALQLGPTHHECEAGPPHDTLRLTALPDYTLTLRRSPDDIPLMTPNTITMIPNSLVGLQTLHPYNTFAAGFNSTGLPHSHSTTRV",NLGN3 protein expression,Protein expression of NLGN3 following glioma cell NLGN3 exposure was confirmed
